According to patent US20140336113A1 (VANDERBILT UNIVERSITY, published 2014):
Positions of bridges follow the written chain, without caps; N, C: chain ends. No end group written: not given here. *: point of attachment. Biotin = O=C1N[C@H]2[C@H](CS[C@H]2CCCCC(=O)*)N1

Assays:
GAPDH = biological target: T1, GAPDH (human, UniProt P04406 2-335); assay: pull-down from human Jurkat T cell lysate, immunoblot
T1 construct: Cellular protein control of the pull-down; also called control cytoplasmic marker protein GAPDH; control protein GAPDH
T1 sequence (P04406 2-335 limits assumed): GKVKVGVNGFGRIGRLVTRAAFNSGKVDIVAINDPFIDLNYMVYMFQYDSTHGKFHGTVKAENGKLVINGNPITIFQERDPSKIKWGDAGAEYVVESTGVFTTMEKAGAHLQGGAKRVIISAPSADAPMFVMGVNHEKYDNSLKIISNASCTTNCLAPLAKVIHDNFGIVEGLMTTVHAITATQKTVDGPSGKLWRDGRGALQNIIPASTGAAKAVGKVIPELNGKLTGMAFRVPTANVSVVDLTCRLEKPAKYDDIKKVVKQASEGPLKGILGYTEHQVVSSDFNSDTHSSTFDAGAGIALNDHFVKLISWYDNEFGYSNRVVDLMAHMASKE
Protocol: (§1) Cell-penetrating peptide cSN50.1 (2986 Da) and other peptides listed in Table 1 were synthesized and prepared as previously described (Liu, D., et al., (2009) Mol Ther 17, 796-802). Biotinylated NTM peptides and their constituent modules were prepared in the same manner, with biotin added to the amino terminus at the last step of synthesis. When necessary, a 5-7 hydrophilic amino acid tag was added to peptide modules to facilitate solubility. For i.p. administration, 200 μl aliquots containing 0.4 or 0.7 mg of cSN50.1 in saline was injected at 8 h or 12 h intervals. Alternatively, 10 mg cSN50.1 in 100 μl sterile H₂O was administered subcutaneously from ALZET Osmotic Pumps (1007D) placed aseptically in interscapular areas. A bolus of 0.7 mg cSN50.1 in 100 μl saline was administered i.p. at weekly pump changes to assure steady NTM bioavailability. Dosage schedules were developed based on previous experimental protocols and half-life studies. Control mice received sterile saline in the same volumes as NTM. Importins pull-down assay. Ten nmols of biotinylated NTM peptides or their constituent modules depicted in Table 1 (SN50, cSN50.1, N50, cN50.1, SSHR-1, SSHR-2) were incubated overnight at 4° C. with 1.5 mg of whole cell extract from unstimulated human Jurkat T cells or serum-starved human HepG2 cells lysed in binding buffer (10 mM HEPES at pH 7.9, 150 mM NaCl, 10 mM KCl, 2.5 mM MgCl₂, 1 mM EGTA, 1 mM DTT, 0.1% NP-40, 1% protease inhibitor cocktail). Lysate was cleared by centrifugation (16,000×g for 30 min at 4° C.) and transferred to a fresh tube containing high capacity Neutravidin beads (Thermo Scientific). After 4 h, beads were separated from lysate/peptide mixture by centrifugation (30 s at 1,000×g) and washed 3 times with binding buffer and 2 times with PBS. Beads were boiled for 10 min in SDS loading buffer, and protein content was analyzed by immunoblotting with a panel of anti-importins alpha and beta antibodies and anti-GAPDH (Abcam) as a cellular protein control.

importin alpha 1 = importin alpha 1 (human, UniProt P52292 2-529); assay: pull-down from cell lysate, immunoblot
importin alpha 5 = biological target: T2, importin alpha 5 (human, UniProt P52294 1-538); assay: pull-down from cell lysate, immunoblot
T2 construct: also called importins alpha; importins/karyopherins alpha
T2 sequence (P52294 whole entry): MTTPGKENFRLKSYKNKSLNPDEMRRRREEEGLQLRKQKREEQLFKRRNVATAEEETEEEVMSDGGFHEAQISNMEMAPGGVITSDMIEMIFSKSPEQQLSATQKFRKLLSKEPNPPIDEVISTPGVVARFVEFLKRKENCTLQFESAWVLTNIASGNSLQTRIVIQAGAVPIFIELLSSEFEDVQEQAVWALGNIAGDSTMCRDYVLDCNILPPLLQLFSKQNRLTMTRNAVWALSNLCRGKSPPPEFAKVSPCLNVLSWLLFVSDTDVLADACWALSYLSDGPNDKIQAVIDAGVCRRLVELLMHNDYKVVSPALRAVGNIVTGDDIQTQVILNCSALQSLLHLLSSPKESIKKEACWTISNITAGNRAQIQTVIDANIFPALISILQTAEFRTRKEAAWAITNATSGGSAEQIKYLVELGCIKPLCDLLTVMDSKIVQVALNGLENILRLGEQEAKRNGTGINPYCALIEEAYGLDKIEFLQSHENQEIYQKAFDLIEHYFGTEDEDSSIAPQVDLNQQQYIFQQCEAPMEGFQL

importin beta = biological target: T3, importin beta (human, UniProt Q14974 1-876); assay: pull-down from human Jurkat T cell lysate, immunoblot
T3 construct: also called imp beta; nuclear transport shuttle for SREBPs
T3 sequence (Q14974 whole entry): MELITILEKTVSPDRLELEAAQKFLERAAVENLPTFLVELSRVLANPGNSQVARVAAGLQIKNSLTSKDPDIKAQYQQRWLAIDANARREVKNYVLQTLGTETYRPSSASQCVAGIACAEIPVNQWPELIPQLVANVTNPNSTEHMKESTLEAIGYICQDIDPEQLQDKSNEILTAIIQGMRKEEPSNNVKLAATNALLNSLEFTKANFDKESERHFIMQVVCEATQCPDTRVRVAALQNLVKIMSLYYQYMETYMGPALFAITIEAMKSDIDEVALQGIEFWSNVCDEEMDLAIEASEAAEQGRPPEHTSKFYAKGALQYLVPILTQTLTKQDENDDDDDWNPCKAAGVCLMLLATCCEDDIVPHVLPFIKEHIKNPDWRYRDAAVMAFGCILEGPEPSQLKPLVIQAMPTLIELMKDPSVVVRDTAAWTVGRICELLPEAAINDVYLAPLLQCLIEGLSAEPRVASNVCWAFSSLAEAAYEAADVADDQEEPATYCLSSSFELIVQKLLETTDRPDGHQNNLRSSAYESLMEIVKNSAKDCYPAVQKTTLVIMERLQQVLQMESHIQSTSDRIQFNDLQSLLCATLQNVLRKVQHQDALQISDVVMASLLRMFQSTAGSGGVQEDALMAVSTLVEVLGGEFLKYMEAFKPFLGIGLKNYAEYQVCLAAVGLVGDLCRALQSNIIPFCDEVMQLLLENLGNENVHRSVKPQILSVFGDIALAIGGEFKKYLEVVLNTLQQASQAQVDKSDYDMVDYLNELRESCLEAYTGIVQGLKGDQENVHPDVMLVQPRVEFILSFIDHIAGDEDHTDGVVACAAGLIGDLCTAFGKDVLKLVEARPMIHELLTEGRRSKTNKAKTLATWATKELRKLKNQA
Protocol: as §1

Row | Binder | binding result (GAPDH) | binding result (importin beta) | also measured
1 | Biotin-AAVALLPAVLLALLAPVQRKRQKLMP (also called NTM; full-length biotinylated NTM) [biotinylated SN50 peptide] | no binding |  | 
2 | Biotin-AAVALLPAVLLALLAPCVQRKRQKLMPC (disulfide 17-28 (inferred), the N-biotinylated version was used in the pull-down assays; also called NTM; full-length biotinylated NTM) [biotinylated cSN50.1 peptide] | no binding |  | 
3 | Biotin-AAVALLPAVLLALLAPCVQRDEQKLMPC (disulfide 17-28 (inferred), cSN50.1 with lysine 21 replaced by aspartic acid and arginine 22 replaced by glutamic acid) [biotinylated cSN50.1 Beta peptide] |  |  | binding result (importin alpha 1): no binding; binding result (importin alpha 5): no binding
4 | Biotin-CVQRKRQKLMPC (disulfide 1-12 (inferred), NLS segment of cSN50.1, no SSHR) [biotinylated cN50.1 peptide] |  | no binding | 
5 | Biotin-VQRKRQKLMP (NLS segment of SN50, no SSHR) [biotinylated N50 peptide] |  | no binding | 
